Results published in patent US20080292639A1 (Amgen, published 2008).
Changes are numbered by the printed parent chain. In names and notes the source's numbering stands. Several values for one entry are separate records, joined by “and”; a condition that tells them apart may be missing. Equal values may be shown once.

B1: 2.1 A (antibody, human IgG1, kappa)
heavy: not shown
light: DVLMTQSPLSLPVTLGQPASISCRSSQSIVHSNGNTYLEWYLQRPGQSPKLLIYKVSNRFSGVPDRFSGSGSGTDFTLKISRVEAEDVGVYYCFQGSHVPLTFGAGTKLEIKRTVAAPSVFIFPPSDEQLKSGTASVVCLLNNFYPREAKVQWKVDNALQSGNSQESVTEQDSKDSTYSLSSTLTLSKADYEKHKVYACEVTHQGLSSPVTKSFNRGEC
notes: Humanized IgG
B2: 2.1 chimera (murine/human chimeric form of antibody 2.1) (antibody, V domains shown)
VH: QVTLKESGPGILKPSQTLSLTCSFSGFSLRTSGMGVGWIRQPSGKGLEWLAHIWWDDDKSYNPSLKSQLTISKDTSRNQVFLKITSVDTADTATYYCARRNYYYDDYFAYWGQGTTLTVSS
VL: DVLMTQTPLSLPVSLGDQASISCRSSQSIVHSNGNTYLEWYLQKPGQSPKLLIYKVSNRFSGVPDRFSGSGSGTDFTLKISRVEAEDLGVYYCFQGSHVPLTFGAGTKLELK
notes: also called chimera 2.1; (CHO) 2.1 Chimera (control)
B3: 2.1 E (antibody, human IgG1, kappa)
heavy: not shown
light: B1 light with L3V, R44K, K50R, A105G, L109V
notes: Humanized IgG; also called 2.1 E (K5R); 2.1E.K5R
B4: 2.1 I (also described as 2.1 I K5R) (antibody, human IgG1, kappa, V domains shown)
VH: QVTLRESGPALVKPTQTLTLTCTFSGFSLRTSGMGVGWIRQPPGKALEWLAHIWWDDDKSYNPSLKSQLTISKDTSKNQVVLTMTNMDPVDTATYYCARRNYYYDDYFAYWGQGTLVTVSS
VL: DIVMTQSPLSLPVTPGEPASISCRSSQSIVHSNGNTYLEWYLQKPGQSPQLLIYKVSNRFSGVPDRFSGSGSGTDFTLKISRVEAEDVGVYYCFQGSHVPLTFGGGTKVEIKR
notes: Humanized IgG
B5: 2.1 K (antibody, human IgG1, kappa, V domains shown)
VH: B4 VH with R5K, A46G, L116T, V117L
VL: B4 VL with I2V, V3L, P15L, E17Q, K44R, Q50K, G105A, V109L
B6: 2.1 G K5 (antibody, human IgG1, kappa)
heavy: not shown
light: B1 light with V2I, L3V, L15P, Q17E, R44K, K50R, A105G, L109V
notes: Humanized IgG
B7: 2.1 L (antibody, human IgG1, kappa)
heavy: not shown
light: B1 light
notes: Humanized IgG
B8: 2.1 E K5 (antibody)
heavy: not shown
light: B1 light with L3V, R44K, K50R, A105G, L109V
notes: Humanized IgG
B9: 2.1 G (also described as 2.1 GK5R) (antibody, human IgG1, kappa)
heavy: not shown
light: B1 light with V2I, L3V, L15P, Q17E, R44K, K50R, A105G, L109V
notes: Humanized IgG
B10: 2.1 J (antibody, human IgG1, kappa, V domains shown)
VH: B4 VH with R5K
VL: B4 VL with I2V, P15L, E17Q, Y41F, L42Q, K44R, Q50R, L51R, G105Q, V109L
B11: 2.1 D (antibody, human IgG1, kappa)
heavy: not shown
light: B1 light with L3V, K50Q, A105G, L109V
notes: Humanized IgG; also called 2.1 D (K5R)
B12: 2.1 F (antibody, human IgG1, kappa)
heavy: not shown
light: B1 light with V2I, L3V, L15P, Q17E, K50Q, A105G, L109V
notes: Humanized IgG; also called 2.1 F (K5R)
B13: 2.1 C (antibody, human IgG1, kappa)
heavy: not shown
light: B1 light with L3V, K50Q, A105Q
notes: Humanized IgG; also called 2.1 C (K5R)
B14: 2.1 B (antibody, human IgG1, kappa, V domains shown)
VH: B4 VH
VL: B4 VL with I2V, P15L, E17Q, Y41F, L42V, K44R, Q50R, L51V, V109L
notes: Humanized IgG; also called 2.1 B (K5R)

These binders were tested against T1, human Aβ42 fibrils (human, UniProt P05067 672-713) (assay: ELISA on plate-dried fibrils, time-resolved europium fluorescence).
T1 construct: domain: Aβ42; Aggregated (fibrillar) form; also called Fibrillar Aβ42; Aβ42 aggregate
T1 sequence (P05067 672-713 limits assumed): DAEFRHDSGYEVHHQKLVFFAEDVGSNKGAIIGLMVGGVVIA
Experimental: (§1) The fibrils (Aβ or collagen) were diluted to 10 μg/ml in water and mixed thoroughly. The solution was aliquoted into the wells of a microtiter plate (Immulon-2; VWR; Cat # 62404-972) at 50 μl per well (resulting in 0.5 μg fibrils/well final). The plate was dried overnight by being placed uncovered in a 37° C. incubator.
(§2) The wells were blocked with 200 μl of blocking solution and incubated for ≧1 hour at room temperature (RT) with shaking. The blocking solution was flicked out and gently dried on a paper towel. 100 μl of primary antibody diluted in PBS containing 10% blocking solution was added to each well and the plate was incubated at RT for 1 hour with shaking. The plate was washed with 5-10× in TBS, pH 7.5+0.05% Tween 20. 100 μl of secondary antibodies (each diluted 1-2,000-fold in PBS) was added to each well and the plate was incubate at RT for 1 hour with shaking. The plate was washed with 5-10× in TBS, pH 7.5+0.05% Tween 20. 100 μl Streptavidin-Europium reagent (1-1,000-fold dilution) was added and the plated was incubated at RT for 45 minutes with shaking. The plate was washed 5-10× in TBS, pH 7.5+0.05% Tween 20. 120 μl Enhance Solution was added and the plate was incubated at RT for 15-30 minutes with shaking. The plate was read on a Victor TRF plate reader (Europium program).

EC50 [nM]	Binder
0.074	B1
0.072	B2

These binders were tested against T2, human Aβ40 fibrils (human, UniProt P05067 672-711) in the same assay as above.
T2 construct: domain: Aβ40; Aggregated (fibrillar) form; also called Fibrillar Aβ40; Aβ40 aggregate
T2 sequence (P05067 672-711 limits assumed): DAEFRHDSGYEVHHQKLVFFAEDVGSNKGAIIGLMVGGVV
Experimental: as §1, §2

EC50 [nM]	Binder
0.065	B1
0.06	B2

The binders below were run against native amyloid plaques in unfixed brain sections of Tg2576 APP transgenic mice (human, UniProt P05067 672-713, limits assumed) (assay: cell-based or functional assay).
Chain of native amyloid plaques in unfixed brain sections of Tg2576 APP transgenic mice (P05067 672-713 limits assumed): as the sequence (P05067 672-713 limits assumed) above

EC50 (µg/ml), ex vivo phagocytosis	EC50 (µg/ml), ex vivo phagocytosis; 2.1 Chimera (293) [µg/mL]	EC50 (µg/ml), ex vivo phagocytosis; 2.1 Chimera (CHO) [µg/mL]	Binder
2.23 µg/mL	–	–	B3
0.69 µg/mL	–	–	B4
0.83 µg/mL	–	–	B1
0.84 µg/mL	–	–	B5
1.78 µg/mL	–	–	B6
0.82 µg/mL and 0.73 µg/mL	–	–	B7
3.94 µg/mL	–	–	B8
0.94 µg/mL	–	–	B9
1.22 µg/mL	–	–	B10
0.8 µg/mL	1.08	0.7	B2

The binders below were run against amyloid plaques in unfixed brain sections of a human AD patient (human, UniProt P05067 672-713) (assay: cell-based or functional assay).
Chain of amyloid plaques in unfixed brain sections of a human AD patient (P05067 672-713): as the sequence (P05067 672-713 limits assumed) above

EC50 of phagocytosis by IC-21 cells on human AD brain sections [µg/mL]	Binder
0.72	B1
0.76	B5

These binders were tested against T3, human Aβ42 monomer (human, UniProt P05067 672-713) (assay: BIAcore, antibody captured on protein G or anti-mouse Fc, Aβ monomer injected).
T3 construct: domain: Aβ42; Monomeric form
T3 sequence (P05067 672-713 limits assumed): as above
Experimental: (§3) Preparation of BIacore Chip Surfaces: Immobilization of Proteins to a Biacore sensor chip (CM5) was performed according to manufacturer's instructions. Briefly, carboxyl groups on the sensor chip surfaces were activated by injecting 60 μL of a mixture containing 0.2 M N-ethyl-N′-(dimethylaminopropyl)carbodiimide (EDC) and 0.05 M N-hydroxysuccinimide (NHS). Specific surfaces were obtained by injecting rProtein G (Pierce), goat anti-mouse Fc (Jackson Immuno Research Lab) or Aβ aggregates diluted in 10 mM acetate, pH 4.0 at concentrations between 5 and 20 μg/mL. Excess reactive groups on the surfaces were deactivated by injecting 60 μL of 1 M ethanolamine. Final immobilized levels were about 10000 resonance units (RU) for the Protein G and anti-mouse Fc surfaces, and 400 RU for the Aβ aggregates surfaces. A blank, mock-coupled reference surface was also prepared on the sensor chips for background subtraction.
(§4) Kinetic analysis of Aβ monomers binding to protein G captured antibodies: The kinetic analysis of the interaction between Aβ monomers and antibodies was performed as follows: 2.1A and mAb 2.1 were diluted in PBS+0.005% P-20+0.1 mg/mL BSA and injected over the immobilized protein G or anti-mouse Fc surfaces. Aβ monomers were diluted in PBS+0.005% P-20+0.1 mg/mL BSA from 1000 nM to 2 nM, and each concentration was injected over the captured antibody surfaces. After 3 minutes dissociation, each surface was regenerated by injection of 10 mM glycine, pH 1.5.

Kd [nM]	koff [s⁻¹]	kon [M⁻¹ s⁻¹]	Binder
50	0.0049	98000	B1

Each binder was assayed against T4, human Aβ40 monomer (human, UniProt P05067 672-711) in the same assay as above.
T4 construct: domain: Aβ40; Monomeric form
T4 sequence (P05067 672-711 limits assumed): as the sequence (P05067 672-711 limits assumed) above
Experimental: as §3, §4

Kd [nM]	koff [s⁻¹]	kon [M⁻¹ s⁻¹]	Binder
68	0.0094	140000	B1

Each binder was assayed against T1, human Aβ42 fibrils (assay: BIAcore, antibody injected over immobilized Aβ aggregates).
Experimental: as §3
(§5) Kinetic analysis of antibodies binding to immobilized Aβ aggregates: Antibodies were diluted in PBS+0.005% P-20+0.1 mg/mL BSA from 100 nM to 0.2 nM. The samples at each concentration were injected over the immobilized Aβ aggregate surfaces, as well as over a blank surface for background subtraction. After a 15-minute dissociation, the surface was regenerated by injecting 8 mM glycine, pH 3.0, and 1 M NaCl for 30 seconds.

koff [s⁻¹]	Binder
< 5e-05	B1

Each binder was assayed against T2, human Aβ40 fibrils in the same assay as above.
Experimental: as §3, §5

koff [s⁻¹]	Binder
< 5e-05	B1

The binders below were run against T1, human Aβ42 fibrils (assay: BIAcore, antibody injected over immobilized Aβ fibrils).
Experimental: as §3, §5
(§6) The kinetic analysis assay as described above was repeated using various humanized versions of anti-Aβ antibodies (2.1 chimera, 2.1 B, 2.1 C, 2.1 D, 2.1 E, 2.1 F, 2.1 G, 2.1 E.K5, 2.1E.K5R, 2.1 G.K5, 2.1 G.K5R, 2.1 I.K5R and 2.1 L).

koff	Binder
5.5e-05 s⁻¹	B11
< 5e-05 s⁻¹	B3
0.00012 s⁻¹	B12
< 5e-05 s⁻¹	B4
< 5e-05 s⁻¹	B1
< 5e-05 s⁻¹	B13
0.00019 s⁻¹	B14
< 5e-05 s⁻¹	B6
< 5e-05 s⁻¹	B7
< 5e-05 s⁻¹	B8
< 5e-05 s⁻¹	B9
6.9e-05 s⁻¹ and 6.3e-05 s⁻¹	B2

The binders below were run against T2, human Aβ40 fibrils in the same assay as above.
Experimental: as §3, §5, §6

koff	Binder
0.00012 s⁻¹	B11
0.00011 s⁻¹ and < 5e-05 s⁻¹	B3
0.00015 s⁻¹	B12
< 5e-05 s⁻¹	B4
< 5e-05 s⁻¹	B1
0.00015 s⁻¹	B13
0.00024 s⁻¹	B14
< 5e-05 s⁻¹	B6
< 5e-05 s⁻¹	B7
< 5e-05 s⁻¹	B8
0.00011 s⁻¹ and < 5e-05 s⁻¹	B9
0.00012 s⁻¹ and 5.9e-05 s⁻¹	B2

Each binder was assayed against T3, human Aβ42 monomer (assay: ELISA on plate-coated monomer, time-resolved europium fluorescence).
Experimental: (§7) The same techniques were used for the coating of the microtiter plate for monomer ELISA. The fibrils Aβ monomer were diluted to 2.5 μg/ml in Coating buffer and mixed thoroughly. The solution was aliquoted into the wells of a microtiter plate [Immulon-2; VWR; Cat.#62404-972] at 100 μl per well. The plate was sealed and incubated overnight at 4° C. The plate was washed 5-10× to remove Aβ coating solution prior to starting the assay.
as §2

EC50 [nM]	Binder
0.031	B1
0.034	B2

These binders were tested against T4, human Aβ40 monomer in the same assay as above.
Experimental: as §7, §2

EC50 [nM]	Binder
0.029	B1
0.031	B2
